Experimental findings from paper doi:10.1101/2024.01.23.576883 (bioRxiv, 2024) are described below.

For orientation: stoichiometry N means the number of molecules, sites or subunits per partner or assembly.

Data set [1] concerns the target T1, HspB6-meGFP-His6 (human), O14558.
T1 chain: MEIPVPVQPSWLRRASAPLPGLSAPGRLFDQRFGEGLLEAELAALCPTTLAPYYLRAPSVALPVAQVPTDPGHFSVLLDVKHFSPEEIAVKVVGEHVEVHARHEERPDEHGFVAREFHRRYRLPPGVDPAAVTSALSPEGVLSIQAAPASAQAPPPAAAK
Description: microfluidic diffusional sizing. The note with it: remark: other sources report otherwise.

Data set [2] concerns the molecule itself. Nature of the data set: microfluidic diffusional sizing.
The target in data set [3] is T2, FUS-mscarlet3, released from MBP-FUS-mscarlet3-His6 by TEV protease (UniProt P35637 1-526).
T2 sequence: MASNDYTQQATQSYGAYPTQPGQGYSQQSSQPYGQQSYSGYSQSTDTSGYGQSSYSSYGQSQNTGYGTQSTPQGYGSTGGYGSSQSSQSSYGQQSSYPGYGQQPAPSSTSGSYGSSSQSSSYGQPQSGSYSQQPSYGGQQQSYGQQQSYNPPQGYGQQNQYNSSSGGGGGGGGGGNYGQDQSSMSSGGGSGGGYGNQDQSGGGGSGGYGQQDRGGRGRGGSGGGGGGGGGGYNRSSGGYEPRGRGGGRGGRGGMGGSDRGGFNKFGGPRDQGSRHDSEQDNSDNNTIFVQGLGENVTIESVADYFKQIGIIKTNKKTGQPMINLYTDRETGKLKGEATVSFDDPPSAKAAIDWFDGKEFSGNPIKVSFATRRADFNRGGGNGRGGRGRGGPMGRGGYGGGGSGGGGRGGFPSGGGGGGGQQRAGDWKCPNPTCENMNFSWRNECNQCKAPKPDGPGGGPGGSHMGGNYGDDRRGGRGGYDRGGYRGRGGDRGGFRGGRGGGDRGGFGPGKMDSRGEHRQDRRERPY
Nature of the data set: fluorescence polarisation. (In fluorescence polarisation assays a small probe gives low polarisation when free and higher when bound to something large.)

B1: HspB6-meGFP-His6, O14558 1-160 (natural protein)
chain: MEIPVPVQPSWLRRASAPLPGLSAPGRLFDQRFGEGLLEAELAALCPTTLAPYYLRAPSVALPVAQVPTDPGHFSVLLDVKHFSPEEIAVKVVGEHVEVHARHEERPDEHGFVAREFHRRYRLPPGVDPAAVTSALSPEGVLSIQAAPASAQAPPPAAAK
Regarding B1, the stoichiometry N in data set [1] was determined as 2.

B2: HspB5-meGFP-His6 (natural protein)
chain: MDIAIHHPWIRRPFFPFHSPSRLFDQFFGEHLLESDLFPTSTSLSPFYLRPPSFLRAPSWFDTGLSEMRLEKDRFSVNLDVKHFSPEELKVKVLGDVIEVHGKHEERQDEHGFISREFHRKYRIPADVDPLTITSSLSSDGVLTVNGPRKQVSGPERTIPITREEKPAVTAAPKK
As to B2, the binding result in data set [2] was “binds”.

B3: HspB4-meGFP-His6 (natural protein)
chain: MDVTIQHPWFKRTLGPFYPSRLFDQFFGEGLFEYDLLPFLSSTISPYYRQSLFRTVLDSGISEVRSDRDKFVIFLDVKHFSPEDLTVKVQDDFVEIHGKHNERQDDHGYISREFHRRYRLPSNVDQSALSCSLSADGMLTFCGPKIQTGLDATHAERAIPVSREEKPTSAPSS
On to B3, for which, in data set [3], the binding result is on record as “binds”.
